The test system of series [1] is Ku70/80 heterodimer (paper assigns Ku70 XRCC5, Ku80 XRCC6). Kind of series: EMSA. The following applies: Invitrogen non-radioactive EMSA kit (SYBR), 25 min at 25 C (stated for nuclear extract), 2.2-2.5% agarose; buffer, salt and pH not given.
The subject of the next series is Nucleolin. In words: EMSA. Conditions: Invitrogen non-radioactive EMSA kit (SYBR), 25 min at 25 C (stated for nuclear extract), 2.2-2.5% agarose; buffer, salt and pH not given.

Results on one substance are retold here after PMC3575474.

IFIH1 rs13023380 A allele PCR product: the binding signal (fraction of G allele binding) (in series [1]; in the series on Nucleolin) was 0.5 throughout.
